How the values were obtained:
[1] = substrate: Nc1cc(-c2cncn2C2O[C@H](CO)[C@@H](O)[C@H]2O)ncn1; test: (§1) Enzyme kinetic constant for S-adenosyl-L-homocysteine hydrolase
[2] = substrate: OC[C@H]1OC(n2cncc2-c2cc(O)ncn2)[C@H](O)[C@@H]1O; test: as §1
[3] = substrate: Nc1ncnc2c1ncn2[C@@H]1O[C@H](CO)[C@@H](O)[C@H]1O; test: as §1
[4] = substrate: Nc1nc2c(ncn2[C@@H]2O[C@H](CO)[C@@H](O)[C@H]2O)c(=O)[nH]1; test: as §1
[5] = substrate: O=c1[nH]cnc2c1ncn2[C@@H]1O[C@H](CO)[C@@H](O)[C@H]1O; test: as §1
[6] = substrate: Nc1nc(O)cc(-c2cncn2C2O[C@H](CO)[C@@H](O)[C@H]2O)n1; test: Enzyme kinetic constant for S-adenosyl-L-homocysteine hydrolase in hydrolysis direction
[7] = substrate: Nc1nc(O)cc(-c2cncn2C2O[C@H](CO)[C@@H](O)[C@H]2O)n1; test: Enzyme kinetic constant for S-adenosyl-L-homocysteine hydrolase; Not a substrate

B1: Adenosylhomocysteinase (Homo sapiens), P23526 (protein)
chain: MSDKLPYKVADIGLAAWGRKALDIAENEMPGLMRMRERYSASKPLKGARIAGCLHMTVETAVLIETLVTLGAEVQWSSCNIFSTQDHAAAAIAKAGIPVYAWKGETDEEYLWCIEQTLYFKDGPLNMILDDGGDLTNLIHTKYPQLLPGIRGISEETTTGVHNLYKMMANGILKVPAINVNDSVTKSKFDNLYGCRESLIDGIKRATDVMIAGKVAVVAGYGDVGKGCAQALRGFGARVIITEIDPINALQAAMEGYEVTTMDEACQEGNIFVTTTGCIDIILGRHFEQMKDDAIVCNIGHFDVEIDVKWLNENAVEKVNIKPQVDRYRLKNGRRIILLAEGRLVNLGCAMGHPSFVMSNSFTNQVMAQIELWTHPDKYPVGVHFLPKKLDEAVAEAHLGKLNVKLTKLTEKQAQYLGMSCDGPFKPDHYRY
Km [1]: 54.4 µM
Km [2]: 421 µM
Km [3]: 0.82 µM
Km [4]: 844 µM
Km [5]: 2.5 µM
Km [6]: 6.6 µM
Km [7]: Not a substrate

Source: ChEMBL document CHEMBL1136535, “Unexpected inhibition of S-adenosyl-L-homocysteine hydrolase by a guanosine nucleoside” (Bioorg Med Chem Lett, 2003)
